We go through one substance from US6352972.

For this assay, the target named is collagen (collagen-coated wells, source not stated). Put plainly: cell-based or functional assay.

“human platelet-derived TGFβ1 (commercial) (from UniProt P01137 279-390) (ligand)” had a proliferation of 3T3 cells of 15 fold.
